Measurements taken from article PMC8133395 (Cell reports, 2021).

Molecular target: T1, EBOV sGP (Mayinga) (Zaire ebolavirus, Mayinga, GenBank …, UniProt P60170)
T1 construct: source: FreeStyle-293-F, transiently transfected, purified (Strep-Tactin, SEC)
Experiment: ELISA
Conditions: both partners purified

T1 sequence (P60170 33-314): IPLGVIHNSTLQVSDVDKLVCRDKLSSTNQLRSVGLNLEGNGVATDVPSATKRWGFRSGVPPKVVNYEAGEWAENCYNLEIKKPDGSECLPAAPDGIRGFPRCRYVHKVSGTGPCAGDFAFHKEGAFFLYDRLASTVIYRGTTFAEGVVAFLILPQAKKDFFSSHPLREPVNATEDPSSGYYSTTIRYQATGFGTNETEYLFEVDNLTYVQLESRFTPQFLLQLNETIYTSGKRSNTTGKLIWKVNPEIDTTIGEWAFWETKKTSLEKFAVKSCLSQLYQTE

B1: BDBV-43 (recombinant IgG1) (antibody, V domains shown)
VH: QVQLVQSGAEVKKPGSSVKVSCRASGDSFSRKYGISWVRQAPGQGFEWMGTIMPIVGLTTSAQKFQGRVTITADKSTSTAHMELNSLTSEDTAIYYCARDEIIGARPHWFDSWGQGTLVTVSS
VL: EIVMTQSPAIMSVSPGKRATLSCRASQSVSSNLAWYQRKPGQAPRLLIYGSSTRATGIPARFSGSGSGTEFTLTISSLQSEDFAVYYCLQYYNWPRTFGQGTKVEIK
notes: source: FreeStyle-293-F, transiently transfected, purified (mAb Select, SEC)
- binding result: binds

B2: BDBV-329 (recombinant IgG1) (antibody, V domains shown)
VH: QVQLVQSGAEVKKPGSSVKVSCKASGGTFDTYAISWVRQAPGQGLEWMGGIIPVLGIVDYAQKFQGRVTITAAKFTNIAYMELSSLRSEDAAVYYCARGLRSLSPRGQEGPTPAPGWRRAQYHYYYMDVWGTGTLVTVSS
VL: EIVMTQSPGTLSLSPGERATLSCRASQSVSSNYLAWYQQKPGQAPRLLIYGASSRATGIPDRFSGSGSGPDFTLTISRLEPEDFAVYYCQQYGSSPGTFGGGTKVEIK
notes: IgG1; also called BDB-329; source: ExpiCHO, transiently transfected, purified (HiTrap MabSelect Sure)
- binding result: binds

B3: BDBV-289 (recombinant IgG1) (antibody, V domains shown)
VH: QVQLVQSGAEVKKPGSSVKVSCKASGATFGSDTVTWVRQAPGQGLEWMGGIIPFFGEANYAQRFQGRVTITADKSTNTAYMELSSLRSEDTAVYFCARQINEMATFGEIHYYTYMDVWGQGTLVTVSS
VL: GSELTQDPAVSVALGQTVRITCQGDSLRNYYASWYQQKPRQAPVLVFYGKNNRPSGIPDRFSGSSSGNTASLTISGAQAEDEADYYCNSRDSSSNHLVFGGGTKLTVL
notes: IgG1; source: FreeStyle-293-F, transiently transfected, purified (mAb Select, SEC)
- binding result: binds

B4: EBOV-442 (recombinant IgG1) (antibody, V domains shown)
VH: EVQLVESGGGLVKPGGSLRLSCTGSGGTGFTFKYAGMSWVRQAPGKGPEWIGRIKSRIDGGTTDYAAPVKDRFIVSRDDSRNTLYLQMNSLKTEDTAVYYCATGSGKGPSASFGESYYYYDFINVWGKGTTVTVSS
VL: ESVLTQSPGTLSLSPGERATLSCRASQSISRKYLAWYQQKPGQAPRLLIYGSSSRATGIPDRFSGSGSGTDFTLTISRLEPEDFAVYYCHQYESSPWTFGQGTKVEIK
notes: IgG1; source: ExpiCHO, transiently transfected, purified (HiTrap MabSelect Sure)
- binding result: binds

B5: EBOV-437 (recombinant IgG1) (antibody, V domains shown)
VH: QVQLVQSGAEVKKPGSSVKVSCKASGGTFSRDIFSWVRQAPGQGLEWMGGIIPIFGTANYAQKFQGRVTITADKSTSTVFMELSGLRSEDTAVYFCARGPPLRGERSWFGESEKYDYFYMDVWGKGTTVTVSS
VL: QIVLTQSPGTLSLSPGERATLSCRASQSVSNSYLAWYQQKPGQAPRLLIYGASSRATGIPDRFSGSGSGTDFTLSISRLEPEDFAVYYCQQYGTSPCTFGQGTKLEIK
notes: as for B4
- binding result: binds

B6: EBOV-237 (recombinant IgG1) (antibody, V domains shown)
VH: QVQLQESGPGLVKPSGTLSLTCAVSGGSISNGIWWSWVRQPPGKGLEWIGEIYHSGSTNYSPSLKSRVTISLDKSKNQFSLKLNSVTAADTAVYYCARAPSQFDFSDWLVPQGAMFRGHYIDYWGQGTLVTVSS
VL: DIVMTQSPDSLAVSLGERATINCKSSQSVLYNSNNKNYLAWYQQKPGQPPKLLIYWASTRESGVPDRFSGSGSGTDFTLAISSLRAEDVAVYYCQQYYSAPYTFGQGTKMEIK
notes: as for B4
- binding result: binds

B7: EBOV-293 (recombinant IgG1) (antibody, V domains shown)
VH: QVQLVQSGAEVKKPGSSVKVSCKASGGTFIDYTYNWVRQAPGQGLVWMGRVVPGLGLSSYAQQFEDRVTITAAKSTSTVYMELRGLTSEDTAMYYCARDTASFGWLPFAFWGQGTLVTVSS
VL: QTVMTQSPGTLSLSPGERATLSCGVSQSISSTYFAWYQQKVGQAPRLLIYGASNRASGIPDRFSGSASGTDFTLTISRVEPEDFAVYYCQQYGSSPTFGQGTRLEIK
notes: as for B1
- binding result: binds

B8: EBOV-296 (recombinant IgG1) (antibody, V domains shown)
VH: QVQLVESGPGLVKPSQTLSLICTVSGGSISSGDFYWSWIRQPPGKGLEWIGFFYYSGITYYNPSLKSRVSISRDTSTNQFSLKLRSVTAADTAVYYCARVRGGRITLGQGDMYYYSGMDVWGQGTLVTVSS
VL: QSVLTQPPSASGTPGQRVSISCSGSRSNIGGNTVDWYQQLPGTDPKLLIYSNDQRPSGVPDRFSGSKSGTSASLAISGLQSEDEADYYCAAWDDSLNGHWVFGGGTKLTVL
notes: as for B1
- binding result: binds
